Source: paper PMC5932034 (2018)

B1: fused FliT−FliD^C construct (FliD^C fused to the N terminus of FliT) [Salmonella enterica serovar Typhimurium ST313] / cytoplasmic domain of Salmonella enterica serovar Typhimurium FlhA (FlhA^C) [Salmonella enterica serovar Typhimurium … (parent complex)
chain 1: GAHMSIDETVARYKAQFTQLDTMMSKLNNTSSYLTQQFTAMNKSGGSGGSGSGGSGGMTSTVEFINRWQRIALLSQSLLELAQRGEWDLLLQQEVSYLQSIETVMEKQTPPGITRSIQDMVAGYIKQTLDNEQLLKGLLQQRLDELSSLIGQSTRQKSLNNAYGRLSGMLLVPDAPGAS
chain 2: SLGMEVGYRLIPMVDFQQDGELLGRIRSIRKKFAQDMGFLPPVVHIRDNMDLQPARYRILMKGVEIGSGDAYPGRWLAINPGTAAGTLPGEKTVDPAFGLDAIWIESALKEQAQIQGFTVVEASTVVATHLNHLIGQFSAELFGRQEAQQLLDRVSQEMPKLTEDLVPGVVTLTTLHKVLQNLLAEKVPIRDMRTILETLAEHAPLQSDPHELTAVVRVALGRAITQQWFPGNEEVQVIGLDTALERLLLQALQGGGGLEPGLADRLLAQTQEALSRQEMLGAPPVLLVNHALRPLLSRFLRRSLPQLVVLSNLELSDNRHIRMTATIGGK
B2: fused FliS−FliC^C construct (FliC^C fused to the C terminus of FliS) [not stated] / cytoplasmic domain of Salmonella enterica serovar Typhimurium FlhA (FlhA^C) [Salmonella enterica serovar Typhimurium ST313] (parent complex)
chain 1: MYTASGIKAYAQVSVESAVMSASPHQLIEMLFDGANSALVRARLFLEQGDVVAKGEALSKAINIIDNGLKAGLDQEKGGEIATNLSELYDYMIRRLLQANLRNDAQAIEEVERLLSNIAEAWKQISPKASFQESRGTASGAGGSEGGGSEGGTSGATEDSDYATEVSNMSRAQILQQAGTSVLAQANQVPQNVLSLLR
chain 2: B1 chain 2

Variants of: B1
Assay: ITC; parent: 1; read off a plot

Point of comparison: chain 2 F98A, ratio to parent ~9. Against it:
- chain 2 V121K — lower, ~7
- chain 2 E279K — lower, ~5
- chain 2 V126G — lower, ~4
- chain 2 E279K, chain 2 M280G, chain 2 L281G — higher, ~10
- chain 2 I79A — lower, ~6
- chain 2 T129M — lower, ~3.3

Variants of: B2
Assay: ITC; parent: 1; read off a plot

Point of comparison: chain 2 V121K, ratio to parent ~12. Against it:
- chain 2 L100A — lower, ~4
- chain 2 D95V — higher, ~15
- chain 2 V126G — higher, ~15
- chain 2 I79A — lower, ~10

Variants of: B2
Assay: ITC; parent: 1; read off a plot
Remark: another data set of the same source

With chain 1 V13G the ratio to parent was roughly 6.5.
